# Assay results published in a protein production outcome set (Wang et al. 2014).
# Assay: label from the status in PepcDB records
# 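Also: failed if final PepcDB status was selected cloned or expressed and not failed if soluble or beyond.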
sequence,measurement,value
MRPTITALVLTYNGERLLDRCLGSLAFCDRILVVDSFSTDATVAIAQAAGAEVLQRKWEGPGPQFAFALEKISDGWIVSLDQDEICSEELRDSILAATAADSGEAGYWIPRRSWYFDRFLKHSGWYPDHLLRLFRAGRMRVEVSGAHYSFHPDGETGTLTGDILHYPYESFRQHLDKVNDYAQKGADDLRAKGKRGGLCAGLCHGAGRFIRIYIIKRGFLDGRAGFINAIHGAFYAFLKHLRIEEGDWGRPFEHKLEHHHHHH,protein production,not failed
MVHCADQGMARAARDLAGALIASSAVLYNQFDAWSRSHAAALEAVRRGGDTEGEAWLLTGLGQLRYEQDKFEESYAYFADALRLFDERGDVPRGAALSLAGMGSARREQARFAEALQLLSSALERYEQTDDVGARARVLYGIGYVHREQGRGAQAWEALSGALGLYRTASDRHGEALTLRSLALCRRADGAWADAERLLHEALRIFVGLQDTFGVMYTEQSLAKVELRRGHLEKARERLGRCLEVARERQDRFGEALVLRTLGEWCLAAGETERAREPLERALAAWEALDLPLWGARTAWDLAEVSASRATNRRRGQPARRRWRPSARWTAGRRGSARTKACRTR,protein production,failed
QEVSWTQYTQRKFQKSRQPRPSSQYNQRLFGGDMEKFIQSSGQPVPLVVESCIRFINLNGLQHEGIFRVSGAQLRVSEIRDAFERGEDPLVEGCTAHDLDSVAGVLKLYFRSLEPPLFPPDLFGELLASSELEDTAERVEHVSRLLWRLPAPVLVVLRYLFTFLNHLAQYSDENMMDPYNLAVCFGPTLLPVPAGQDPVALQGRVNQLVQTLIVQPDRVFPPLTSLPGPVYE,protein production,failed
MLPIASGNDDRNLIRYVDGGRFDEIMLTGDLTGLSSFLTNAGPNARDDFDLTVLMRAAEAGNLMVVARLLDLGANPRLTNPRGVTALHIAAIAGDDGIVECLIDAGAEVDAVDDQGRTPLWNAAAHHLPDSAVVDVLLRAGANVNLRDCNGVSPEDML,protein production,failed
MNIEEAKELVDNSKFYGKTSSVIKAEVRDIIDQLNQPKPEVPQCVADWIEECKEEDLTLKGLFSNSDMPAKIFDWIFGSDENCRLMAEAWINGYTVEKEKLYTVDLPNGQPLVRGINTLYFSQNLATENVKLTESEIRKDFEWAWQFAEEVTE,protein production,failed
MLNHPTHERLIELGLTGMAKAFEEQRRSPDLEALPFEDRIGLLVDREAAERDTRRLTTRLKIAALRQTACVEDVDLRTPRGIDRAVFAKLVEGRWIDRHENLLVTGATGLGKSWLACALGHKACRDNRSVLYHRVPRLFEALALARGDGRYARLLKSLGRAQLLILDDWGLSVLTAAERRDLLEILEDRHGRASTIVTSQLPVDTWHGAIGDPTVADAILDRLVHNAHRLQLTGESMRKRSAKTITLDGQPEH,protein production,failed
MGLFTDGFKLLKKASEPLYKTPKSIQETIEIMAVAENGIFEVSKNKYSKCYRFQDINYTTATEDEQIGIFERYCKFLNSLDCNYKITINNKNKNMDELRDKVLIAEKNDGFNNYRRIYNDIIEEKIIEGRQGIEQERYLTITIERKNFEEAKAQFATLEATIHKAFIELGAEIVPLNGNERLKVLYDYYHLGDEGSFDFDIKKAKKVGADFRNDLCNGMVKYFPDHFEDESKFCKALFIKKYPSSLSDRFINEITSLPVHSITSIDVVPVPKDLTTKVLQKKYLGIESDIIKQQRVRNKNNDFSTEISYAKRTEKKEIEEIMDDVRENDQCLFFVGVTIILMAESKKELESVCETVETIGKRNSCTIDTHYLKQREALNTALPIGVRQVETMRTLLTQSLAVLMPFNVQELNDSTGNYYGINQISKNVNIGNRKKLINGNGFVFGVPGSGKSFFCKMEMGSVFLSGDDEIIVIDPMNEYFDIAETYGGTVVNMSTYTDNYVNPLEMDVWSLDPNDSKGMVREKGEFMLGLCEQCIGDSLNSRQKSIIDRCVRKLYIDIARSKEKYIPVMSDFYDILMAQPEDEAKDIALSLELFVNGSLNIFNHQTNVDVDNRFTVYGIRDLGTELSPITMLVMMESIQNRIVENGKRGKATWLYIDEFHVLLNSEYSAKYLQQLWKKVRKQGGLCTGITQNVVDLLQNYTATTMLANSEFVALLKQANTDSSKMAEVIGVSEAQLRFVTNTASGMGLIKCGSVVIPFDNQISKDTDLYKLYNTNIHEIIEMKKHANEKNVNSL,protein production,failed
MKSYRKELWFHTKRRREFINITPLLEECVRESGIKEGLLLCNAMHITASVFINDDEPGLHHDFEVWLEKLAPEKPYSQYKHNDTGEDNADAHLKRTIMGREVVIAITDRKMDLGPWEQVFYGEFDGMRPKRVLVKIIGE,protein production,not failed
MMMGRIKPTDGTAGNPEFNAELVAEKIEAITSPPPAPDTSEPDAAASQPAAPQTAAPPAQTVAQPAPVTPPIVSEPPAPQQAAAAPQPAVDESALRYFASRGDKVRLQAEISRLQALYPNWVPPADPLAVPQNGDKQLEAMWQLYSDGRYAELRKAVADRQAADAGWQPPADLLDRLDVAEGRARLVNASDLKQYATVVDIAAATPSLLTCSEIDVLWRVAEAFIQTERAQRGQDAYTYILKNCTNPAERQATVEKASTLLAYQPMQALLALERPAADGSKEFDAIRDNLARRFMAEGDDEPNLAIAPDYIARLEKLAETQGLASDALLLGWYQLRRNNDADAEKWFRAARAKQDSAAASQGLALALIARKAPEEAEDVMFRWRADSDDATSTYLAATANLMALQPPADLAEDVLHRIAGEVIARKYVPTAQQFGWYARSLNQFQTAARWFETALAWKPDDEPSAYGLVITREQLSDRKGVLDLQRAWAGRSSRITNLEDTSSLMPNAVTPPPAKGTLAAQQPAQPTQHPPAEPLPAERRVILQPGSEVVVRAARPSMETVNVPRGPRQTRGCSTTIDAGQLKPADALSRGWCLMDINRPMEAISAFESALQSPSRKVREDAAYGQSLAYLRAGLSGNAAVAATKAPQNRQRAAELQVAILADRALSAFDAGRYRETLIYLDQRAQLQQERIDLMVLRGYCYLNLKMYGDATRIFEAAAATGSRDAARGLADVRNVTHPDVND,protein production,failed
MKRWQMEWLLVSVALVWGANYTIGKYGVAYMSSIQFNSLRFLVASPVLLLITFLMERSLRIDRKDWLRLVAVGIVGTTMYQTMFMLSVKYTSATNASLLIAMSPIFTGILAVLHKQERFSMKVQIGSIVAFIGAAFVLLTGHTGGTTYEYAWLGNIIGLVAAIAWGWYPILAQPLITKYSAMRVTSWSTLIGIVPLVVYCLFNVNTLTWPVDMPSWGSLAYSIVFATIFGLAMWYVGISKIGSTKVMVYMYLVPLFAVIFAAVTIGEQINMMQLVGGLIIFIGLYVVKKGGIQKPALNLKKVS,protein production,failed
MLNYLIFFPLISAFVVLLLNRGGVKVFSVVVSFMILALNLDTFADFLQGVSFDYNLSFKILKFFSFHVGVDSIALVLMLLSSLMIFLSFLFLKLEQKALISCIFFLEFAIMGLFSAKDGLLFYIFWEFSLLPLLYIMGVYGKDFRAGVKFFIYAFAGSILMLVALIYQAYLNYQLLNIFTFDLEIWKNNASAANFTEQLLLFGAFFIAFAIKAPLFPLHTWAPKVYANSPILVSVMLVVFKMAPFGFLLFCLPLFPDASVYFMPLIVALCIVSIVYNALIAYRAENIKELIAYSSISHLGVMILGIFSLNALGISGAVFYMFAHGIVTGTLFLMVELLYQRYHTYDISFYHSLAKKAPLFSIFFMLILLASVSLPLTVSFVGEFLILLGIAKINLFYALLAGLVIILGAIYMFAVFRKIFFMQKQSFIEGFSLRFREIVALVCIVVMIFGLGLMPNILLKPIQKDVDNLIKTMNIRAVEQNTLDFLSKIGEANVK,protein production,failed
MYNPVGVAAIGLGRWAYVMADAYTKSEKLKLVTCYSRTEDKREKFGKRYNCAGDATMEALLAREDVEMVIITVPNDKHAEVIEQCARSGKHIYVEKPISVSLDHAQRIDQVIKETGVKFLCGHSSRRLGALRKMKEMIDTKEIGEVSSIEAVFSNERGLELKKGNWRGEPATAPGGPLTQLGVHQIDNLQFLLGPVARVFNFGKPMYTEVENITVNQTLLEFEDGKQAYLGTNWACPGVFSINVYGTKANLFYQLDFSWWSNSDVTDEHSTLIKREFASMSDDPDNRILRDVKVDFESVDHLRVEVEEVADVIRNGGETEIGAEASLRNLAVVLAAVKSVHEKRPVEIAEIIG,protein production,not failed
MRASSSQGTPMNTALHDNREVVTVCLQHKVLDGSPGTPAAQPPRWKQALLTYLVICPMTMVIPQLLAPLFARFPQLGGVITGNLIVNLFVILPVVFYIMPWVTRRCANWLRG,protein production,failed
MEEKSKYLSLVGAGALIGSISTVALLKLLSRSSLKQLNENPETNFLAGNGIESETRPDTVANGQDLLKDEIVSEHLTRNIQFFGLESQHKVTGSYVVVIGLGGVGSHAASMLLRSGVGKLLLVDFDQVSLSSLNRHAVATRADVGIPKAMCLKKHFSSIFPECHIEAKVMLYDSSSEEEILSGKPDFVLDCIDNIDTKVGLLAACVKRGLKVLSATGAGARADPTRIRVADIRESTIDPLSRSVRHRLRRKHGIEGGIPVVFSLEKPKAKLLPFEGTNGEDENPLDYQVVPGFRVRIIPVLGTIPAIFGQIMASYVITQLAGVQVQMEPIVNLDLDHYRLLHQRLIEHEETVYGTSAEVEVDVEEVMYIVKELWHGRSARDETAKDVGRGMWRAMNELMLVRWDAKKPATVSNLVLLKFKEADEHETKTLEEVKESETEFFERVSCVLKKAELDFYG,protein production,failed
MKRREVLQAGMALGGLAGLGRALAQGGFTLTLVHTNDTHAHLEPVELTLSGEKTPVGGVARRVALFDRVWARAKNPLFLDAGDVFQGTLYFNQYRGLADRYFMHRLRYRAMALGNHEFDLGPGPLADFLKGARFKVVSANVDASREPRLKGLFAPYAVVVVGGERVGIIGLTTPDTREISNPGPTVAFLDPYESAQKAVYELLAKGVNKIVVLSHLGYGEDLKLARRLVGVQVIVGGHSHTLLGSFPHKELSPAGPYPTVVKNPEGKDVLVVQAWEWGKVVGLLEVTFDAKGELLAYKGEALLMTPEAAPEDFFAKEALLAYAQPVMALMQQVIAEAKVDLVGERAVVRRRESNLGNLITDGMLWKTRNAGTQIALQNGGGIRASIPKGPITVGKVYEVLPFGNTLVVMDLKGKEILAALENGVSQWENTAGRFLQVSGLRYAFDLSRPAGSRVVRVEVKTEKGYVPLDLEATYRVVVNNFIANGGDGFTVLKEAQGYRVDTGFSDAESFMDYLKELKVVEAGLEGRIEVLNEPKGERPAYFAYRVPGLVGV,protein production,not failed
EIILANISDTVFVTDLSGKFTFICSNIDNIFGYSLAEVNAMGTVETLLGDFRFNEYELKEKGELKNLRHDVQDKQGKIHYLLINLKKVAINGGIYLYSCRDISE,protein production,failed
MIETTAALAEACTELAKSEFITIDTEFLRETTFWPELCLVQMASPTLEVLVDPLAKGIDLTPMFELMANPNVVKVFHAARQDIEIIYHLGGLIPHPIFDTQVAAMVCGFGDSISYDQLVQKIKNVQIDKSSRFTDWSRRPLTEKQLDYALADVTHLRDVYLSLKAQLEREGRSLWLTEEMNILESRDTYDMHPDDAWLRLKSRLRKPTELAILKFVAAWREREARSRNVPRSRVLKDDGIFEIAQQQPKDAEALSRLRTIPKGWERSASGTAIIETVNAALALPKEEMPKAPRHSHAPEGSGAAVELLKVLLKLTADKHGVAAKVIANSDDLDKIASEGENATVAALTGWRRELFGDVALKLINGEVALRFAGKKVEAVEVEAAASES,protein production,failed
MSRNKGVQYLSSSEHSLKDYLPILSMAGLILIVQVLALLLSMPMEINDMQAFEDPTQVSNSIYYIVMILVFTLFVLIAIKKNMKWIISLLIYLAIVSTLYYVFFALFTLIPALAGLENIASLLLSIGLTVLLYKYPEWYVIDLLGVCIAGGVSALIGISLSIIPVVVLLILLAVYDAISVYKTKHMIAMAEGVMDLKLPILFIIPKHLNYSFITEGFKEGEKREAFFMGLGDAVMPTLLVVSANVFLENGGLSYPVLGAMLGTLVGHIFLSILVMRGKPQAGLPFLNSGAIIGFFIGVLFSGASIL,protein production,failed
NYNIYDHPKAAEDRKNTVLYLMHYHKRITDKQWEDAKKIDLKANLVNRTPEERQNIDTNQDSEYNSYVNFVKSELMNNKAFKDENLGNVLQSG,protein production,failed
MNQYVKIEVQQGDTLWSIADQVADTKKINKNDFIEWVADKNQLQTSDIQPGDELVIPLKKKHQDAYELATLEHHHHHH,protein production,failed
